Values of other authors as cited in paper PMC9405863.

Biological target: Calmodulin (Homo sapiens) (UniProt P0DP23)
Assay: ITC

Row | Kd [nM] | Substance
1 | 800 | STIM1 K-rich domain (from UniProt Q13586)
2 | 900 | STIM2 K-rich domain (from UniProt Q9P246)
